From US20180118786A1 (ECOLE POLYTECHNIQUE FEDERALE DE LAUSANNE EPFL, published 2018)
Starred links: 1 amine or outer side, 2 acyl side, 3 side chain; linkers in the order of their positions; H or OH if unused. Positions of bridges follow the written chain, without caps; N, C: chain ends. Non-standard residues stand in square brackets, D forms with d. No end group written: not given here. TATA = O=C(CC[*:1])N1CN(C(=O)CC[*:2])CN(C(=O)CC[*:3])C1; Phe(4-NO2) = N[C@@H](Cc1ccc([N+](=O)[O-])cc1)C(=O)O; Phe(3-F) = N[C@@H](Cc1cccc(F)c1)C(=O)O; Phe(3-Me) = Cc1cccc(C[C@H](N)C(=O)O)c1; Phe(4-F) = N[C@@H](Cc1ccc(F)cc1)C(=O)O; 1Nal = N[C@@H](Cc1cccc2ccccc12)C(=O)O; Phe(2-F) = N[C@@H](Cc1ccccc1F)C(=O)O; 3Pal = N[C@@H](Cc1cccnc1)C(=O)O

Target: T1, human β-FXIIa (HFXIIAB; Molecular Innovations) (human, UniProt P00748 354-362; P00748 373-615, limits assumed)
T1 construct: domain: catalytic domain; Bought; also called human b-FXIIa; human FXIIa
T1 sequence (P00748 373-615 limits assumed, one chain of several): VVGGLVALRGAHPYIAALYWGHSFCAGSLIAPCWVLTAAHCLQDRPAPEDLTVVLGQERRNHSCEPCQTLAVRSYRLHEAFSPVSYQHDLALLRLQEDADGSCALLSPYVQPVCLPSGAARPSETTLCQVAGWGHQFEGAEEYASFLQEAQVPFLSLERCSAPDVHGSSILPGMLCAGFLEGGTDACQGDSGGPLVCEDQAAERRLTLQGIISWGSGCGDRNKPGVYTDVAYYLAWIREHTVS
Experiment: protease inhibition assay, fluorogenic substrate

Binder	Ki
RCFRLPCRQLRC-NH2 (linker 2-7-12 via TATA; N-terminus assumed; SMILES CC(C)C[C@@H]1NC(=O)[C@H](CCC(N)=O)NC(=O)[C@H](CCCNC(=N)N)NC(=O)[C@@H]2CSCCC(=O)N3CN(CN(C3)C(=O)CCSC[C@H](NC(=O)[C@@H](N)CCCNC(=N)N)C(=O)N[C@@H](Cc3ccccc3)C(=O)N[C@@H](CCCNC(=N)N)C(=O)N[C@@H](CC(C)C)C(=O)N3CCC[C@H]3C(=O)N2)C(=O)CCSC[C@@H](C(N)=O)NC(=O)[C@H](CCCNC(=N)N)NC1=O) [peptide 63 (bicyclic peptide without the C-terminal arginine)]	28.8 nM
RC[3Pal]RLPCRQLRCRW-NH2 (linker 2-7-12 via TATA; N-terminus assumed; SMILES CC(C)C[C@@H]1NC(=O)[C@H](CCC(N)=O)NC(=O)[C@H](CCCNC(=N)N)NC(=O)[C@@H]2CSCCC(=O)N3CN(CN(C3)C(=O)CCSC[C@H](NC(=O)[C@@H](N)CCCNC(=N)N)C(=O)N[C@@H](Cc3cccnc3)C(=O)N[C@@H](CCCNC(=N)N)C(=O)N[C@@H](CC(C)C)C(=O)N3CCC[C@H]3C(=O)N2)C(=O)CCSC[C@@H](C(=O)N[C@@H](CCCNC(=N)N)C(=O)N[C@@H](Cc2c[nH]c3ccccc23)C(N)=O)NC(=O)[C@H](CCCNC(=N)N)NC1=O) [peptide 54 (peptide 2, carbon replaced with nitrogen in meta-position of the phenyl ring of Phe3)]	8.4 nM
RCFRLPCRQLRCRW-NH2 (linker 2-7-12 via TATA; N-terminus assumed; SMILES CC(C)C[C@@H]1NC(=O)[C@H](CCC(N)=O)NC(=O)[C@H](CCCNC(=N)N)NC(=O)[C@@H]2CSCCC(=O)N3CN(CN(C3)C(=O)CCSC[C@H](NC(=O)[C@@H](N)CCCNC(=N)N)C(=O)N[C@@H](Cc3ccccc3)C(=O)N[C@@H](CCCNC(=N)N)C(=O)N[C@@H](CC(C)C)C(=O)N3CCC[C@H]3C(=O)N2)C(=O)CCSC[C@@H](C(=O)N[C@@H](CCCNC(=N)N)C(=O)N[C@@H](Cc2c[nH]c3ccccc23)C(N)=O)NC(=O)[C@H](CCCNC(=N)N)NC1=O) [peptide 2 (FXII618 with a tryptophan appended to the C-terminus)]	26 nM
RCWRLPCRQLRCRW-NH2 (linker 2-7-12 via TATA; N-terminus assumed; SMILES CC(C)C[C@@H]1NC(=O)[C@H](CCC(N)=O)NC(=O)[C@H](CCCNC(=N)N)NC(=O)[C@@H]2CSCCC(=O)N3CN(CN(C3)C(=O)CCSC[C@H](NC(=O)[C@@H](N)CCCNC(=N)N)C(=O)N[C@@H](Cc3c[nH]c4ccccc34)C(=O)N[C@@H](CCCNC(=N)N)C(=O)N[C@@H](CC(C)C)C(=O)N3CCC[C@H]3C(=O)N2)C(=O)CCSC[C@@H](C(=O)N[C@@H](CCCNC(=N)N)C(=O)N[C@@H](Cc2c[nH]c3ccccc23)C(N)=O)NC(=O)[C@H](CCCNC(=N)N)NC1=O) [peptide 3 (peptide 2, Phe3 to tryptophan)]	26 nM
RC[Phe(4-NO2)]RLPCRQLRCRW-NH2 (linker 2-7-12 via TATA; also: description names 2-nitro-phenylalanine, example says para) [peptide 60 (peptide 2, nitro group in para position of Phe3)]	4.5 nM
RC[Phe(2-F)]RLPCRQLRCRW-NH2 (linker 2-7-12 via TATA; N-terminus assumed; SMILES CC(C)C[C@@H]1NC(=O)[C@H](CCC(N)=O)NC(=O)[C@H](CCCNC(=N)N)NC(=O)[C@@H]2CSCCC(=O)N3CN(CN(C3)C(=O)CCSC[C@H](NC(=O)[C@@H](N)CCCNC(=N)N)C(=O)N[C@@H](Cc3ccccc3F)C(=O)N[C@@H](CCCNC(=N)N)C(=O)N[C@@H](CC(C)C)C(=O)N3CCC[C@H]3C(=O)N2)C(=O)CCSC[C@@H](C(=O)N[C@@H](CCCNC(=N)N)C(=O)N[C@@H](Cc2c[nH]c3ccccc23)C(N)=O)NC(=O)[C@H](CCCNC(=N)N)NC1=O) [peptide 56 (peptide 2, fluorine in ortho-position of Phe3)]	13.1 nM

Continued, values first:

Ki	Binder
932 nM	CFRLPCRQLRCR-NH2 (linker 1-6-11 via TATA; N-terminus assumed; SMILES CC(C)C[C@@H]1NC(=O)[C@H](CCC(N)=O)NC(=O)[C@H](CCCNC(=N)N)NC(=O)[C@@H]2CSCCC(=O)N3CN(CN(C3)C(=O)CCSC[C@H](N)C(=O)N[C@@H](Cc3ccccc3)C(=O)N[C@@H](CCCNC(=N)N)C(=O)N[C@@H](CC(C)C)C(=O)N3CCC[C@H]3C(=O)N2)C(=O)CCSC[C@@H](C(=O)N[C@@H](CCCNC(=N)N)C(N)=O)NC(=O)[C@H](CCCNC(=N)N)NC1=O) [peptide 62 (bicyclic peptide without the N-terminal arginine)]
10.4 nM	RC[Phe(3-Me)]RLPCRQLRCRW-NH2 (linker 2-7-12 via TATA; N-terminus assumed; SMILES Cc1cccc(C[C@@H]2NC(=O)[C@@H](NC(=O)[C@@H](N)CCCNC(=N)N)CSCCC(=O)N3CN4CN(C3)C(=O)CCSC[C@H](NC(=O)[C@@H]3CCCN3C(=O)[C@H](CC(C)C)NC(=O)[C@H](CCCNC(=N)N)NC2=O)C(=O)N[C@@H](CCCNC(=N)N)C(=O)N[C@@H](CCC(N)=O)C(=O)N[C@@H](CC(C)C)C(=O)N[C@@H](CCCNC(=N)N)C(=O)N[C@H](C(=O)N[C@@H](CCCNC(=N)N)C(=O)N[C@@H](Cc2c[nH]c3ccccc23)C(N)=O)CSCCC4=O)c1) [peptide 52 (peptide 2, methyl group in meta-position of the phenyl ring of Phe3)]
283 nM	RCFKLPCRQLRCRW-NH2 (linker 2-7-12 via TATA; N-terminus assumed; SMILES CC(C)C[C@@H]1NC(=O)[C@H](CCC(N)=O)NC(=O)[C@H](CCCNC(=N)N)NC(=O)[C@@H]2CSCCC(=O)N3CN(CN(C3)C(=O)CCSC[C@H](NC(=O)[C@@H](N)CCCNC(=N)N)C(=O)N[C@@H](Cc3ccccc3)C(=O)N[C@@H](CCCCN)C(=O)N[C@@H](CC(C)C)C(=O)N3CCC[C@H]3C(=O)N2)C(=O)CCSC[C@@H](C(=O)N[C@@H](CCCNC(=N)N)C(=O)N[C@@H](Cc2c[nH]c3ccccc23)C(N)=O)NC(=O)[C@H](CCCNC(=N)N)NC1=O) [peptide 10 (peptide 2, Arg4 to lysine)]
2.31 nM	RC[Phe(4-F)]RLPCRQLRCRW-NH2 (linker 2-7-12 via TATA) [peptide 58 (peptide 2, fluorine in para-position of Phe3)]

Target: T1, human β-FXIIa (HFXIIAB; Molecular …)
Experiment: protease inhibition assay

fold reduction of activity vs peptide 2	Binder
10 fold	RCFKLPCRQLRCRW-NH2 (linker 2-7-12 via TATA; N-terminus assumed; SMILES CC(C)C[C@@H]1NC(=O)[C@H](CCC(N)=O)NC(=O)[C@H](CCCNC(=N)N)NC(=O)[C@@H]2CSCCC(=O)N3CN(CN(C3)C(=O)CCSC[C@H](NC(=O)[C@@H](N)CCCNC(=N)N)C(=O)N[C@@H](Cc3ccccc3)C(=O)N[C@@H](CCCCN)C(=O)N[C@@H](CC(C)C)C(=O)N3CCC[C@H]3C(=O)N2)C(=O)CCSC[C@@H](C(=O)N[C@@H](CCCNC(=N)N)C(=O)N[C@@H](Cc2c[nH]c3ccccc23)C(N)=O)NC(=O)[C@H](CCCNC(=N)N)NC1=O) [peptide 10 (peptide 2, Arg4 to lysine)]

Target: T1, human β-FXIIa (HFXIIAB; Molecular …)
Experiment: protease inhibition assay (Table in FIG. 6)

Binder	Ki
RC[Phe(3-F)]RLPCRQLRCRW-NH2 (linker 2-7-12 via TATA) [peptide 57 (peptide 2, fluorine in meta-position of Phe3)]	< 100 nM
H-RC[3‑benzothienylalanine]RLPCRQLRCRW-NH2 (linker 2-7-12 via TATA) [FXII618 variant with F in position three replaced by 3-benzothienylalanine]	< 50 nM

Next, values leading:

Ki	Binder
< 50 nM	H-RC[1Nal]RLPCRQLRCRW-NH2 (linker 2-7-12 via TATA) [FXII618 variant with F in position three replaced by 1-naphthylalanine]
< 100 nM	RCPRLPCRQLRCRW-NH2 (linker 2-7-12 via TATA; N-terminus assumed; SMILES CC(C)C[C@@H]1NC(=O)[C@H](CCC(N)=O)NC(=O)[C@H](CCCNC(=N)N)NC(=O)[C@@H]2CSCCC(=O)N3CN(CN(C3)C(=O)CCSC[C@H](NC(=O)[C@@H](N)CCCNC(=N)N)C(=O)N3CCC[C@H]3C(=O)N[C@@H](CCCNC(=N)N)C(=O)N[C@@H](CC(C)C)C(=O)N3CCC[C@H]3C(=O)N2)C(=O)CCSC[C@@H](C(=O)N[C@@H](CCCNC(=N)N)C(=O)N[C@@H](Cc2c[nH]c3ccccc23)C(N)=O)NC(=O)[C@H](CCCNC(=N)N)NC1=O, Number tied to residue by the order of the list) [peptide 9 (peptide 2, Phe3 to proline)]
